Article PMC6555819, “Comprehensive study of nuclear receptor DNA binding provides a revised framework for understanding receptor specificity”

Target: LXRa:RXRa (Homo sapiens, UniProt Q13133;P19793 full;full)
Test: no ligand; PBM; 270 nM : 90 nM RXRa; PBS pH 7.4, 2% milk, 0.02% Triton X-100, 1 mM DTT, BSA, 0.4 mg/ml salmon testes DNA
Conditions: tags: His kept;His cleaved; copies: 1;1; label: surface-attached array probe
How it was run: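 Random background probes are the reference for binding z-scores. These scores derive from regression-normalized fluorescence on custom Agilent 4×180K protein-binding microarrays incubated 1 h with ligand-free nuclear receptor dimers. Binding was detected with antibodies against each partner (one per run).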

Sequence of LXRa:RXRa (Q13133 whole entry, chain 1 of 2): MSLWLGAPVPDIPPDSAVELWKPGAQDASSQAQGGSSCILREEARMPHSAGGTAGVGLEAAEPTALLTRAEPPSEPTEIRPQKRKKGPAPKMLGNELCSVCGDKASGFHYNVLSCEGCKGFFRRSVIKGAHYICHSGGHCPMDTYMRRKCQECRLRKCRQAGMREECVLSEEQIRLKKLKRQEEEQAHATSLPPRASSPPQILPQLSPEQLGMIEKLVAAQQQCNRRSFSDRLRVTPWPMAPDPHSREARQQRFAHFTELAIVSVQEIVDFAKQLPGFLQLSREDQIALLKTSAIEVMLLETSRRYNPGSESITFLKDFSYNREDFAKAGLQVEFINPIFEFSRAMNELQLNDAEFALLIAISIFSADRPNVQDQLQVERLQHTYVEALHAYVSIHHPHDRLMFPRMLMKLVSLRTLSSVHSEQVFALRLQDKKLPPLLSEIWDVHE
Sequence of LXRa:RXRa (P19793 whole entry, chain 2 of 2): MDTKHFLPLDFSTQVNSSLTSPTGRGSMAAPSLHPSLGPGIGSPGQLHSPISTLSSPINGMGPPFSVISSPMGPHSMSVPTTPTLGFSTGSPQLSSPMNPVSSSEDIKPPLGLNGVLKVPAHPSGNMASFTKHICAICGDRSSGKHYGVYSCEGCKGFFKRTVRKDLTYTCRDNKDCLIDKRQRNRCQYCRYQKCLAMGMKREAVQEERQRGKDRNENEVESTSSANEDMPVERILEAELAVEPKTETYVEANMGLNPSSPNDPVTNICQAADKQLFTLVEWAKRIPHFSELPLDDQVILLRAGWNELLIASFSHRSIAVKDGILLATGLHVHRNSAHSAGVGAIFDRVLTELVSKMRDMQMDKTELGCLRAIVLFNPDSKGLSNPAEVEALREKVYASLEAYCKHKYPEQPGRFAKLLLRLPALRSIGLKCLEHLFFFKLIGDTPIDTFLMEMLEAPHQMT

Row | Binder | binding signal
1 | NRC3_wobSeed113_DR4_A24C_o1 (dsDNA) DNA 1: GCATATGTAGGTTAGCTGGGGTCCTTCAGACTAGGCGCGATTGACAGCGTAGAATGAAGG DNA 2: CCTTCATTCTACGCTGTCAATCGCGCCTAGTCTGAAGGACCCCAGCTAACCTACATATGC | 0.37 PBM z-score against 500 random probes
2 | NRC3_wobSeed73_DR3_A18T_o1 (dsDNA) DNA 1: GCCAAACTAGGTCACAGTGGTCAAAGTCCGTGCGTAGCGATTGACAGCGTAGAATGAAGG DNA 2: CCTTCATTCTACGCTGTCAATCGCTACGCACGGACTTTGACCACTGTGACCTAGTTTGGC | 3.02 PBM z-score against 500 random probes
3 | NRC3_wobSeed102_DR4_G19A_o1 (dsDNA) DNA 1: GCCCTAGCAGGCCAATCTAGGTCACTCAAGGCTTGAGCGATTGACAGCGTAGAATGAAGG DNA 2: CCTTCATTCTACGCTGTCAATCGCTCAAGCCTTGAGTGACCTAGATTGGCCTGCTAGGGC | 3 PBM z-score against 500 random probes
4 | NRC3_wobSeed104_DR4_A14G_o1 (dsDNA) DNA 1: GCTCTTGTAGATCGATAGAGGTTAAGAAAGTGCGCTGCGATTGACAGCGTAGAATGAAGG DNA 2: CCTTCATTCTACGCTGTCAATCGCAGCGCACTTTCTTAACCTCTATCGATCTACAAGAGC | 3.15 PBM z-score against 500 random probes
5 | NRC3_wobSeed104_DR4_G20A_o1 (dsDNA) DNA 1: GCTCTTGTAGATCAATAGAAGTTAAGAAAGTGCGCTGCGATTGACAGCGTAGAATGAAGG DNA 2: CCTTCATTCTACGCTGTCAATCGCAGCGCACTTTCTTAACTTCTATTGATCTACAAGAGC | 0.44 PBM z-score against 500 random probes
6 | NRC3_wobSeed29_DR1_A14C_o1 (dsDNA) DNA 1: GCGCTTACGGGTCCAAGGTTATAGCATGAATAGAATGCGATTGACAGCGTAGAATGAAGG DNA 2: CCTTCATTCTACGCTGTCAATCGCATTCTATTCATGCTATAACCTTGGACCCGTAAGCGC | 0.43 PBM z-score against 500 random probes
7 | NRC3_wobSeed140_DR5_T15A_o1 (dsDNA) DNA 1: GCAGAATGAGGTTAAACGTAGATCAGGGAAGAAAGTGCGATTGACAGCGTAGAATGAAGG DNA 2: CCTTCATTCTACGCTGTCAATCGCACTTTCTTCCCTGATCTACGTTTAACCTCATTCTGC | 3.17 PBM z-score against 500 random probes
8 | NRC3_wobSeed74_DR3_T21A_o1 (dsDNA) DNA 1: GCTCTAGTTGGTCACGGAGGACACACACGACGGGTAGCGATTGACAGCGTAGAATGAAGG DNA 2: CCTTCATTCTACGCTGTCAATCGCTACCCGTCGTGTGTGTCCTCCGTGACCAACTAGAGC | 0.43 PBM z-score against 500 random probes
9 | NRC3_wobSeed74_DR3_A23C_o1 (dsDNA) DNA 1: GCTCTAGTTGGTCACGGAGGTCCCACACGACGGGTAGCGATTGACAGCGTAGAATGAAGG DNA 2: CCTTCATTCTACGCTGTCAATCGCTACCCGTCGTGTGGGACCTCCGTGACCAACTAGAGC | 0.41 PBM z-score against 500 random probes
10 | NRC3_wobSeed77_DR3_A14T_o1 (dsDNA) DNA 1: GCACTTACGGGTCTACGAGGTTATAGCACGCGTATAGCGATTGACAGCGTAGAATGAAGG DNA 2: CCTTCATTCTACGCTGTCAATCGCTATACGCGTGCTATAACCTCGTAGACCCGTAAGTGC | 0.49 PBM z-score against 500 random probes
11 | NRC3_wobSeed110_DR4_A18T_o1 (dsDNA) DNA 1: GCTCTGCTAGGTCAACGTTGGTCAGCTAATCTGCTAGCGATTGACAGCGTAGAATGAAGG DNA 2: CCTTCATTCTACGCTGTCAATCGCTAGCAGATTAGCTGACCAACGTTGACCTAGCAGAGC | 3.08 PBM z-score against 500 random probes
12 | NRC3_wobSeed138_DR5_C7T_o1 (dsDNA) DNA 1: GCGATATAGGGTCAGCTAGAGGCCAGAGTATGGAAAGCGATTGACAGCGTAGAATGAAGG DNA 2: CCTTCATTCTACGCTGTCAATCGCTTTCCATACTCTGGCCTCTAGCTGACCCTATATCGC | 3.06 PBM z-score against 500 random probes
13 | NRC3_wobSeed65_DR2_T24A_o1 (dsDNA) DNA 1: GCATATGTAGGTTATCGGGTCATACAGTTTGCGCATGCGATTGACAGCGTAGAATGAAGG DNA 2: CCTTCATTCTACGCTGTCAATCGCATGCGCAAACTGTATGACCCGATAACCTACATATGC | 3.1 PBM z-score against 500 random probes
